Assay [1] concerns the target lactoferrin (Homo sapiens) (UniProt P02788). To be noted: cited from earlier work.
Assay [2] addresses recombinant WU2 (r)PspA possessing only αHD and PRD (Streptococcus pneumoniae serotype 3 strain WU2). Kind of assay: SPR; Biacore T200; kinetic study, LF at several concentrations in PBS-P+ injected over rPspA amine-coupled to a CM5 chip; 25°C; fitted to a two-state binding curve. In general terms: Surface plasmon resonance follows binding to a sensor surface in real time, without labels.

One may read the Kd as the free concentration of one partner at which half of the binding sites on the other are occupied at equilibrium, for simple one-to-one binding. For mGAPDH (from UniProt P04406), the Kd in assay [1] is 43.8 nM. On to “recombinant lactoferrin (from UniProt P02788 20-710) (natural protein)”, for which the Kd in assay [2] was 3.89 nM.

These data come from paper PMC10746202.
